Assay results as given in the Human Domainome abundance scans (Beltran et al. 2025).
± gives the uncertainty stated by the source.

B1: Cullin-9, residues 2234 to 2275; numbered along this chain, Q8IWT3 (parent)
chain: KRCPSCQAPIEKNEGCLHMTCAKCNHGFCWRCLKSWKPNHKD

Variants of: B1
Experiment: abundance fitness (aPCA) (normalised: wild type 0, dead -1); higher = more abundant; growth selection in yeast, the domain comes from the species named
Conditions: Homo sapiens
KGCPSCQAPIEKNEGCLHMTCAKCNHGFCWRCLKSWKPNHKD [R2G] gave an abundance fitness of 0.204 ± 0.079. KYCPSCQAPIEKNEGCLHMTCAKCNHGFCWRCLKSWKPNHKD [R2Y] gave an abundance fitness of 0.242 ± 0.13. Variant KVCPSCQAPIEKNEGCLHMTCAKCNHGFCWRCLKSWKPNHKD [R2V] has an abundance fitness of -0.2 ± 0.094. KSCPSCQAPIEKNEGCLHMTCAKCNHGFCWRCLKSWKPNHKD [R2S] gave an abundance fitness of 0.077 ± 0.092. For KMCPSCQAPIEKNEGCLHMTCAKCNHGFCWRCLKSWKPNHKD [R2M], the abundance fitness was 0.559 ± 0.11. Variant KLCPSCQAPIEKNEGCLHMTCAKCNHGFCWRCLKSWKPNHKD [R2L] has an abundance fitness of 0.227 ± 0.089. Variant KICPSCQAPIEKNEGCLHMTCAKCNHGFCWRCLKSWKPNHKD [R2I] has an abundance fitness of 1.09 ± 0.27. KKCPSCQAPIEKNEGCLHMTCAKCNHGFCWRCLKSWKPNHKD [R2K] gave an abundance fitness of 0.123 ± 0.1. For KHCPSCQAPIEKNEGCLHMTCAKCNHGFCWRCLKSWKPNHKD [R2H], the abundance fitness was 0.104 ± 0.35. With KPCPSCQAPIEKNEGCLHMTCAKCNHGFCWRCLKSWKPNHKD [R2P] the abundance fitness was -0.209 ± 0.13. For KNCPSCQAPIEKNEGCLHMTCAKCNHGFCWRCLKSWKPNHKD [R2N], the abundance fitness was 0.571 ± 0.14. Work on KTCPSCQAPIEKNEGCLHMTCAKCNHGFCWRCLKSWKPNHKD [R2T] yielded an abundance fitness of 0.147 ± 0.1. KWCPSCQAPIEKNEGCLHMTCAKCNHGFCWRCLKSWKPNHKD [R2W] showed an abundance fitness of -0.279 ± 0.11. For KRCPSCPAPIEKNEGCLHMTCAKCNHGFCWRCLKSWKPNHKD [Q7P], the abundance fitness was -0.18 ± 0.12. In the case of KRCPSCDAPIEKNEGCLHMTCAKCNHGFCWRCLKSWKPNHKD [Q7D], the abundance fitness is reported as 0.538 ± 0.24. With KRCPSCEAPIEKNEGCLHMTCAKCNHGFCWRCLKSWKPNHKD [Q7E] the abundance fitness was 0.089 ± 0.11. In the case of KRCPSCAAPIEKNEGCLHMTCAKCNHGFCWRCLKSWKPNHKD [Q7A], the abundance fitness is reported as -0.064 ± 0.15. Work on KRCPSCVAPIEKNEGCLHMTCAKCNHGFCWRCLKSWKPNHKD [Q7V] yielded an abundance fitness of -0.198 ± 0.11. For KRCPSCTAPIEKNEGCLHMTCAKCNHGFCWRCLKSWKPNHKD [Q7T], the abundance fitness was -0.073 ± 0.28. In the case of KRCPSCSAPIEKNEGCLHMTCAKCNHGFCWRCLKSWKPNHKD [Q7S], the abundance fitness is reported as -0.406 ± 0.17. KRCPSCIAPIEKNEGCLHMTCAKCNHGFCWRCLKSWKPNHKD [Q7I] showed an abundance fitness of -0.346 ± 0.34. Work on KRCPSCCAPIEKNEGCLHMTCAKCNHGFCWRCLKSWKPNHKD [Q7C] yielded an abundance fitness of -0.025 ± 0.11. With KRCPSCGAPIEKNEGCLHMTCAKCNHGFCWRCLKSWKPNHKD [Q7G] the abundance fitness was 0.258 ± 0.079. Variant KRCPSEQAPIEKNEGCLHMTCAKCNHGFCWRCLKSWKPNHKD [C6E] has an abundance fitness of -0.304 ± 0.11. With KRCPSWQAPIEKNEGCLHMTCAKCNHGFCWRCLKSWKPNHKD [C6W] the abundance fitness was -0.615 ± 0.15. For KRCPSGQAPIEKNEGCLHMTCAKCNHGFCWRCLKSWKPNHKD [C6G], the abundance fitness was -0.126 ± 0.079. KRCPSLQAPIEKNEGCLHMTCAKCNHGFCWRCLKSWKPNHKD [C6L] gave an abundance fitness of -0.295 ± 0.12. In the case of KRCPSSQAPIEKNEGCLHMTCAKCNHGFCWRCLKSWKPNHKD [C6S], the abundance fitness is reported as -0.511 ± 0.12. Variant KRCPSNQAPIEKNEGCLHMTCAKCNHGFCWRCLKSWKPNHKD [C6N] has an abundance fitness of 0.056 ± 0.31. Variant KRCPSAQAPIEKNEGCLHMTCAKCNHGFCWRCLKSWKPNHKD [C6A] has an abundance fitness of -0.029 ± 0.096. Variant KRCPSRQAPIEKNEGCLHMTCAKCNHGFCWRCLKSWKPNHKD [C6R] has an abundance fitness of -0.612 ± 0.092. Work on KRCPSTQAPIEKNEGCLHMTCAKCNHGFCWRCLKSWKPNHKD [C6T] yielded an abundance fitness of -0.347 ± 0.098. KRCPSPQAPIEKNEGCLHMTCAKCNHGFCWRCLKSWKPNHKD [C6P] showed an abundance fitness of -0.639 ± 0.15. In the case of KRCPSVQAPIEKNEGCLHMTCAKCNHGFCWRCLKSWKPNHKD [C6V], the abundance fitness is reported as -0.383 ± 0.087. In the case of KRCPSDQAPIEKNEGCLHMTCAKCNHGFCWRCLKSWKPNHKD [C6D], the abundance fitness is reported as -0.091 ± 0.13. For KRCPSHQAPIEKNEGCLHMTCAKCNHGFCWRCLKSWKPNHKD [C6H], the abundance fitness was -0.222 ± 0.11. For KRCPSYQAPIEKNEGCLHMTCAKCNHGFCWRCLKSWKPNHKD [C6Y], the abundance fitness was -0.518 ± 0.15. KRCPSQQAPIEKNEGCLHMTCAKCNHGFCWRCLKSWKPNHKD [C6Q] gave an abundance fitness of -0.587 ± 0.12. KRCPSMQAPIEKNEGCLHMTCAKCNHGFCWRCLKSWKPNHKD [C6M] showed an abundance fitness of -0.447 ± 0.12. In the case of KRCPSIQAPIEKNEGCLHMTCAKCNHGFCWRCLKSWKPNHKD [C6I], the abundance fitness is reported as -0.419 ± 0.18. In the case of KRCPSKQAPIEKNEGCLHMTCAKCNHGFCWRCLKSWKPNHKD [C6K], the abundance fitness is reported as -0.515 ± 0.19. In the case of KRCPSFQAPIEKNEGCLHMTCAKCNHGFCWRCLKSWKPNHKD [C6F], the abundance fitness is reported as -0.846 ± 0.28. With KRCPSCQFPIEKNEGCLHMTCAKCNHGFCWRCLKSWKPNHKD [A8F] the abundance fitness was -0.01 ± 0.13. In the case of KRCPSCQSPIEKNEGCLHMTCAKCNHGFCWRCLKSWKPNHKD [A8S], the abundance fitness is reported as -0.058 ± 0.085. With KRCPSCQQPIEKNEGCLHMTCAKCNHGFCWRCLKSWKPNHKD [A8Q] the abundance fitness was 0.014 ± 0.11. With KRCPSCQKPIEKNEGCLHMTCAKCNHGFCWRCLKSWKPNHKD [A8K] the abundance fitness was -0.006 ± 0.13. For KRCPSCQCPIEKNEGCLHMTCAKCNHGFCWRCLKSWKPNHKD [A8C], the abundance fitness was -0.213 ± 0.12. KRCPSCQLPIEKNEGCLHMTCAKCNHGFCWRCLKSWKPNHKD [A8L] gave an abundance fitness of -0.256 ± 0.083. KRCPSCQPPIEKNEGCLHMTCAKCNHGFCWRCLKSWKPNHKD [A8P] gave an abundance fitness of -0.555 ± 0.28. KRCPSCQTPIEKNEGCLHMTCAKCNHGFCWRCLKSWKPNHKD [A8T] gave an abundance fitness of -0.027 ± 0.11. Work on KRCPSCQGPIEKNEGCLHMTCAKCNHGFCWRCLKSWKPNHKD [A8G] yielded an abundance fitness of 0.023 ± 0.074. Variant KRCPSCQVPIEKNEGCLHMTCAKCNHGFCWRCLKSWKPNHKD [A8V] has an abundance fitness of -0.231 ± 0.083. Variant KRCPSCQMPIEKNEGCLHMTCAKCNHGFCWRCLKSWKPNHKD [A8M] has an abundance fitness of -0.155 ± 0.1. With KRCPSCQIPIEKNEGCLHMTCAKCNHGFCWRCLKSWKPNHKD [A8I] the abundance fitness was -0.341 ± 0.27. For KRCPSCQYPIEKNEGCLHMTCAKCNHGFCWRCLKSWKPNHKD [A8Y], the abundance fitness was -0.005 ± 0.14. With KRCPSCQNPIEKNEGCLHMTCAKCNHGFCWRCLKSWKPNHKD [A8N] the abundance fitness was 0.305 ± 0.22. Variant KRCPSCQRPIEKNEGCLHMTCAKCNHGFCWRCLKSWKPNHKD [A8R] has an abundance fitness of -0.153 ± 0.072. For KRCPSCQDPIEKNEGCLHMTCAKCNHGFCWRCLKSWKPNHKD [A8D], the abundance fitness was -0.284 ± 0.12. Variant KRMPSCQAPIEKNEGCLHMTCAKCNHGFCWRCLKSWKPNHKD [C3M] has an abundance fitness of -0.144 ± 0.11. Work on KRWPSCQAPIEKNEGCLHMTCAKCNHGFCWRCLKSWKPNHKD [C3W] yielded an abundance fitness of -1.4 ± 0.18.
